Reference: patent US20070021348

B1: Asp 2 (transiently expressed from pcDNA3.1aMycHis) (protein)
chain: ETDEEPEEPGRRGSFVEMVDNLRGKSGQGYYVEMTVGSPPQTLNILVDTGSSNFAVGAAPHPFLHRYYQRQLSSTYRDLRKGVYVPYTQGKWEGELGTDLVSIPHGPNVTVRANIAAITESDKFFINGSNWEGILGLAYAEIARPDDSLEPFFDSLVKQTHVPNLFSLQLCGAGFPLNQSEVLASVGGSMIIGGIDHSLYTGSLWYTPIRREWYYEVIIVRVEINGQDLKMDCKEYNYDKSIVDSGTTNLRLPKKVFEAAVKSIKAASSTEKFPDGFWLGEQLVCWQAGTTPWNIFPVISLYLMGEVTNQSFRITILPQQYLRPVEDVATSQDDCYKFAISQSSTGTVMGAVIMEGFYVVFDRARKRIGFAVSACHVHDEFRTAAVEGPFVTLDMEDCGYNIPQTDESTLMTIAYVMAAICALFMLPLCLMVCQWRCLRCLRQQHDDFADDISLLK
B2: Asp 2 active site mutant D93N (protein)
chain: ETDEEPEEPGRRGSFVEMVDNLRGKSGQGYYVEMTVGSPPQTLNILVNTGSSNFAVGAAPHPFLHRYYQRQLSSTYRDLRKGVYVPYTQGKWEGELGTDLVSIPHGPNVTVRANIAAITESDKFFINGSNWEGILGLAYAEIARPDDSLEPFFDSLVKQTHVPNLFSLQLCGAGFPLNQSEVLASVGGSMIIGGIDHSLYTGSLWYTPIRREWYYEVIIVRVEINGQDLKMDCKEYNYDKSIVDSGTTNLRLPKKVFEAAVKSIKAASSTEKFPDGFWLGEQLVCWQAGTTPWNIFPVISLYLMGEVTNQSFRITILPQQYLRPVEDVATSQDDCYKFAISQSSTGTVMGAVIMEGFYVVFDRARKRIGFAVSACHVHDEFRTAAVEGPFVTLDMEDCGYNIPQTDESTLMTIAYVMAAICALFMLPLCLMVCQWRCLRCLRQQHDDFADDISLLK
B3: Asp 2 active site mutant D289N (protein)
chain: ETDEEPEEPGRRGSFVEMVDNLRGKSGQGYYVEMTVGSPPQTLNILVDTGSSNFAVGAAPHPFLHRYYQRQLSSTYRDLRKGVYVPYTQGKWEGELGTDLVSIPHGPNVTVRANIAAITESDKFFINGSNWEGILGLAYAEIARPDDSLEPFFDSLVKQTHVPNLFSLQLCGAGFPLNQSEVLASVGGSMIIGGIDHSLYTGSLWYTPIRREWYYEVIIVRVEINGQDLKMDCKEYNYDKSIVNSGTTNLRLPKKVFEAAVKSIKAASSTEKFPDGFWLGEQLVCWQAGTTPWNIFPVISLYLMGEVTNQSFRITILPQQYLRPVEDVATSQDDCYKFAISQSSTGTVMGAVIMEGFYVVFDRARKRIGFAVSACHVHDEFRTAAVEGPFVTLDMEDCGYNIPQTDESTLMTIAYVMAAICALFMLPLCLMVCQWRCLRCLRQQHDDFADDISLLK

Molecular target: human APP isoform 695 (in SH-SY5Y APP695 cells), P05067
Sequence (P05067 whole entry, looked up, canonical isoform): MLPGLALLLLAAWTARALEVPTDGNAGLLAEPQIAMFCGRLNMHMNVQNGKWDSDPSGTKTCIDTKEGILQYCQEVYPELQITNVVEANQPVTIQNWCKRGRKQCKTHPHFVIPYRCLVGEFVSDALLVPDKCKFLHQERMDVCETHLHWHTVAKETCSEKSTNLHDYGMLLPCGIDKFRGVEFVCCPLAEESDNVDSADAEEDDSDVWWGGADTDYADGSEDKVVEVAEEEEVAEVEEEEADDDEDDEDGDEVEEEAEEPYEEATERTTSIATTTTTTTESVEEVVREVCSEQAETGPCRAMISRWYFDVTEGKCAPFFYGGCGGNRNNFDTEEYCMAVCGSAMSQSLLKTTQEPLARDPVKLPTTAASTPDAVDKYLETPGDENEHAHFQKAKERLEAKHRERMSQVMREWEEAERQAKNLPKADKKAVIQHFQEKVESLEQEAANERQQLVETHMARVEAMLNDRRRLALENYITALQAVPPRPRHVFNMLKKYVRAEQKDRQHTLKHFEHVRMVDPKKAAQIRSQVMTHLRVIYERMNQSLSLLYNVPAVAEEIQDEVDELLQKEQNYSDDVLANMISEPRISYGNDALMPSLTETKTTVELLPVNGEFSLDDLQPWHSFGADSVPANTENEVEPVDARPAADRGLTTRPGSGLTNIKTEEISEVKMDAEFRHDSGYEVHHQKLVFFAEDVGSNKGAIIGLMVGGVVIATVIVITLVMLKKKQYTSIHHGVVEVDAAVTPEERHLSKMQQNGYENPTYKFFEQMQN

Protein	sAPPβ (110 kDa) in media, Western blot	sAPPβ in media, Western blot
B1	An increase in sAPPβ (110 kDa) was observed in the media from Asp 2 transfected cells compared to empty vector pcDNA3.1MycHis transfected control cells	–
B2	–	There was no increase in sAPPβ secreted from cells transfected with either of the Asp-Asn mutants D93N or D289N
B3	–	There was no increase in sAPPβ secreted from cells transfected with either of the Asp-Asn mutants D93N or D289N
